For this test, the target named is FOXM1 (Forkhead box M1) (UniProt Q08050). Nature of the test: GST pull-down with purified proteins. The conditions noted are these: reference: GST-ZNF148 WT without ERK; sites S306.

In the case of “ZNF148 (ZBP‐89) (from UniProt Q9UQR1) GST-ZNF148 WT pre-incubated with active ERK”, the “binding against the reference” value is reported as “stronger”.

The values above are taken from PMC7156819.
